US20060257396A1 (published 2006)

Legend:
[1] = target: T1, aggregated synthetic Aβ1-42 (UniProt P05067 672-713); test: ELISA on aggregated synthetic Aβ1-42
T1 construct: range 672-713; Aggregated form coated for ELISA; also called aggregated Aβ1-42; aggregate Aβ 1-42

[2] = target: T1, aggregated synthetic Aβ1-42; test: ELISA on aggregated synthetic Aβ1-42 (given as ED50)
[3] = target: T2, Monomer (preparation treated with peroxynitrite; modified residues not stated ; The preparation was treated with peroxynitrite. The modified residues are not stated and cannot be shown in the letters.); test: immunoprecipitation of the peroxynitrite treated oligomeric Aβ1-42 preparation with the antibody, SDS-PAGE (16% Tricine), Western blot imaged with 3D6
T2 construct: Monomer fraction of the same preparation as m4; also called Aβ1-42 monomer; monomeric Aβ

[4] = target: T3, Aβ peptide (β-amyloid peptide; form and length not stated for the assay) (UniProt P05067 672-713); test: BIAcore
T3 construct: also called beta amyloid peptide

[5] = target: T3, Aβ peptide (β-amyloid peptide; form and …); test: average of competitive ELISA and BIAcore
[6] = target: T3, Aβ peptide (β-amyloid peptide; form and …); test: ELISA competitive binding assay with biotinylated 3D6
[7] = target: T3, Aβ peptide (β-amyloid peptide; form and …); test: BIAcore, Langmuir model (global analysis)
[8] = target: T3, Aβ peptide (β-amyloid peptide; form and …); test: Biacore; humanized h12A11v1
[9] = target: T1, aggregated synthetic Aβ1-42; test: competitive Aβ ELISA with biotin conjugated mouse 12A11 Cγ2a

B1: murine 12B4 monoclonal antibody (antibody, V domains shown)
VH: QVTLKESGPGILQPSQTLSLTCSFSGFSLSTNGMGVSWIRQPSGKGLEWLAHIYWDEDKRYNPSLKSRLTISKDTSNNQVFLKITNVDTADTATYYCARRRIIYDVEDYFDYWGQGTTLTVSS
VL: DVLMTQTPLSLPVSLGDQASISCRSSQNIVHSNGNTYLEWYLQKPGQSPKLLIYKVSNRFSGVPDRFSGSGSGTDFTLKISRVEAEDLGVYYCFQGSHVPLTFGAGTKLELK
notes: Mouse hybridoma antibody; Leader left out; also called mAb 12B4
EC50 [1]: < 1 nM
EC50 [2]: 0.667 nM
binding result [3]: binds

B2: murine 12A11 monoclonal antibody (antibody, mouse IgG1, V domains shown)
VH: QVTLKESGPGILKPSQTLSLTCSFSGFSLSTSGMSVGWIRQPSGKGLEWLAHIWWDDDKYYNPSLKSRLTISKDTSRNQVFLKITSVDTADTATYYCARRTTTADYFAYWGQGTTLTVSS
VL: DVLMTQTPLSLPVSLGDQASISCRSSQSIVHSNGNTYLEWYLQKPGQSPKLLIYKVSNRFSGVPDRFSGSGSGTDFTLKISRVEAEDLGIYYCFQSSHVPLTFGAGTKLELK
notes: also called mu12A11; m12A11
EC50 [1]: < 1 nM
EC50 [2]: 0.233 nM

B3: monoclonal antibody 2C1 (antibody, V domains shown)
VH: EVQLQQSGAELVKPGASVKLSCTGSGFNIKVYYVHWLKQLTEQGLEWIGRIDPENGETIYAPKFQDKATLTVDTSSNTAYLQLSSLTSEDTAVYYCVSSGYWGQGTTLTVSS
VL: DIVMTQSAFSNPVTLGTSASISCRSSKSLLHRNGITYLYWYLQKPGQSPQLLIYQMSNLASGVPDRFTSSGSGTDFTLKISRVEAEDVGVYYCAQNLELWTFGGGTKLEIK
EC50 [1]: < 1 nM
EC50 [2]: 0.333 nM

B4: humanized 3D6 version 1 (antibody, V domains shown)
VH: EVQLLESGGGLVQPGGSLRLSCAASGFTFSNYGMSWVRQAPGKGLEWVASIRSGGGRTYYSDNVKGRFTISRDNAKNSLYLQMNSLRAEDTALYYCVRYDHYSGSSDYWGQGTLVTVSS
VL: YVVMTQSPLSLPVTPGEPASISCKSSQSLLDSDGKTYLNWLLQKPGQSPQRLIYLVSKLDSGVPDRFSGSGSGTDFTLKISRVEAEDVGVYYCWQGTHFPRTFGQGTKVEIK
notes: also called h3D6v1; h3D6 v1
Kd [4]: 2.06 nM
fold loss of binding affinity against murine 3D6 [5]: ~3 fold
fold less binding affinity than 3D6 [6]: ~6 fold

B5: humanized 3D6 version 2 (antibody, V domains shown)
VH: EVQLLESGGGLVQPGGSLRLSCAASGFTFSNYGMSWVRQAPGKGLEWVASIRSGGGRTYYSDNVKGRFTISRDNSKNTLYLQMNSLRAEDTAVYYCVRYDHYSGSSDYWGQGTLVTVSS
VL: DVVMTQSPLSLPVTPGEPASISCKSSQSLLDSDGKTYLNWLLQKPGQSPQRLIYLVSKLDSGVPDRFSGSGSGTDFTLKISRVEAEDVGVYYCWQGTHFPRTFGQGTKVEIK
notes: also called h3D6v2; h3D6 v2
Kd [4]: 2.24 nM
fold loss of binding affinity against murine 3D6 [5]: ~3 fold
fold less binding affinity than 3D6 [6]: ~6 fold

B6: humanized 12A11 version 2 (antibody, V domains shown)
VH: QVQLVESGGGVVQPGRSLRLSCAFSGFTLSTSGMSVGWIRQAPGKGLEWVAHIWWDDDKYYNPSLKSRFTISKDTSKNTLYLQMNSLRAEDTAVYYCARRTTTADYFAYWGQGTTVTVSS
VL: DVVMTQSPLSLPVTPGEPASISCRSSQSIVHSNGNTYLEWYLQKPGQSPQLLIYKVSNRFSGVPDRFSGSGSGTDFTLKISRVEAEDVGVYYCFQSSHVPLTFGQGTKLEIK
notes: V region subcloned into heavy chain expression vector pCMV-Cgamma1 (human γ1); also called h12A11v2
Ka [7]: 6.86e+07 M⁻¹
Kd [7]: 14.6 nM
koff [7]: 0.00412 s⁻¹
kon [7]: 283000 M⁻¹ s⁻¹

B7: humanized 12A11 version 1 (antibody, V domains shown)
VH: QVQLVESGGGVVQPGRSLRLSCAFSGFSLSTSGMSVGWIRQAPGKGLEWLAHIWWDDDKYYNPSLKSRLTISKDTSKNTVYLQMNSLRAEDTAVYYCARRTTTADYFAYWGQGTTVTVSS
VL: DVVMTQSPLSLPVTPGEPASISCRSSQSIVHSNGNTYLEWYLQKPGQSPQLLIYKVSNRFSGVPDRFSGSGSGTDFTLKISRVEAEDVGVYYCFQSSHVPLTFGQGTKLEIK
notes: Variable regions only tied to the tested antibody; also called h12A11v1; humanized 12A11 v1
Kd [8]: 23 nM
Ka [7]: 3.48e+08 M⁻¹
Kd [7]: 2.87 nM
koff [7]: 0.00117 s⁻¹
kon [7]: 408000 M⁻¹ s⁻¹
IC50 ratio to murine and chimeric 12A11 [9]: ≤ 2 fold

B8: humanized 12A11 version 3 (antibody, V domains shown)
VH: QVQLVESGGGVVQPGRSLRLSCAFSGFTLSTSGMSVGWIRQAPGKGLEWVAHIWWDDDKYYNPSLKSRFTISRDNSKNTLYLQMNSLRAEDTAVYYCARRTTTADYFAYWGQGTTVTVSS
VL: DVVMTQSPLSLPVTPGEPASISCRSSQSIVHSNGNTYLEWYLQKPGQSPQLLIYKVSNRFSGVPDRFSGSGSGTDFTLKISRVEAEDVGVYYCFQSSHVPLTFGQGTKLEIK
notes: Variable regions only; made like version 2; also called h12A11v3; humanized 12A11 v3
Ka [7]: 6.53e+07 M⁻¹
Kd [7]: 15.3 nM
koff [7]: 0.0055 s⁻¹
kon [7]: 359000 M⁻¹ s⁻¹

B9: humanized 12A11 version 3.1 (antibody, V domains shown)
VH: QVQLVESGGGVVQPGRSLRLSCAFSGFTLSTSGMSVGWIRQAPGKGLEWLAHIWWDDDKYYNPSLKSRFTISKDNSKNTLYLQMNSLRAEDTAVYYCARRTTTADYFAYWGQGTTVTVSS
VL: DVVMTQSPLSLPVTPGEPASISCRSSQSIVHSNGNTYLEWYLQKPGQSPQLLIYKVSNRFSGVPDRFSGSGSGTDFTLKISRVEAEDVGVYYCFQSSHVPLTFGQGTKLEIK
notes: Variable regions only tied to the tested antibody; also called h12A11v3.1; humanized 12A11 v3.1
Ka [7]: 1.67e+08 M⁻¹
Kd [7]: 5.99 nM
koff [7]: 0.00313 s⁻¹
kon [7]: 523000 M⁻¹ s⁻¹

B10: humanized 12A11 version 2.1 (antibody, V domains shown)
VH: QVQLVESGGGVVQPGRSLRLSCAFSGFTLSTSGMSVGWIRQAPGKGLEWVAHIWWDDDKYYNPSLKSRFTISKDNSKNTLYLQMNSLRAEDTAVYYCARRTTTADYFAYWGQGTTVTVSS
VL: DVVMTQSPLSLPVTPGEPASISCRSSQSIVHSNGNTYLEWYLQKPGQSPQLLIYKVSNRFSGVPDRFSGSGSGTDFTLKISRVEAEDVGVYYCFQSSHVPLTFGQGTKLEIK
notes: Variable regions only; made like version 2; also called h12A11v2.1
Ka [7]: 1.17e+08 M⁻¹
Kd [7]: 8.54 nM
koff [7]: 0.00261 s⁻¹
kon [7]: 306000 M⁻¹ s⁻¹
